Experimental data from the Immune Epitope Database (IEDB).

What was measured:
Assay in all cases: IEDB peptide-MHC binding, purified MHC/competitive/radioactivity; filed as Kd, often an IC50 or EC50 that approximates it; ≥ and ≤ were set here for values at or beyond the usual limits of such assays
[1] = biological target: HLA-A*02:06
[2] = biological target: HLA-A*02:02
[3] = biological target: HLA-A*02:03
[4] = biological target: HLA-A*11:01
[5] = biological target: HLA-A*33:01
[6] = biological target: HLA-A*68:01
[7] = biological target: HLA-A*31:01
[8] = biological target: HLA-A*03:01
[9] = source organism: SARS coronavirus Tor2
[10] = source organism: Lymphocytic choriomeningitis virus (strain Armstrong)
[11] = source organism: Vaccinia virus WR
[12] = source organism: Dengue virus 4 Philippines/H241/1956
[13] = source organism: Dengue virus 1 Brazil/97-11/1997
[14] = source organism: Mammarenavirus whitewaterense

Sequence	Kd [1, 11]	Kd [2, 11]	Kd [3, 11]	other results
MLLTFLTSL	–	–	–	Kd [1, 9]: 3.63 nM; Kd [2, 9]: 6.21 nM; Kd [3, 9]: 4.84 nM
AVYNFATCGI	–	–	–	Kd [1, 10]: 25.2 nM; Kd [2, 10]: 25.3 nM; Kd [3, 10]: 7.28 nM
NLLLLFVTI	–	–	–	Kd [1, 9]: 456 nM; Kd [2, 9]: 436 nM; Kd [3, 9]: 1600 nM
LMLKATLLCV	–	–	–	Kd [1, 9]: 63.4 nM; Kd [2, 9]: 3.39 nM; Kd [3, 9]: 20.9 nM
KLPTWLGAA	9.42 nM	499 nM	8.02 nM	–
TISGNIYSAL	2670 nM	9.32 nM	89.2 nM	–
YLSSVLLAL	–	–	–	Kd [1, 9]: 8.16 nM; Kd [2, 9]: 0.144 nM; Kd [3, 9]: 0.308 nM
IVQLPKRGV	3120 nM	12000 nM	8750 nM	–
WIKNLETYT	8210 nM	18300 nM	637 nM	–
QLMCQPILL	–	–	–	Kd [1, 9]: 76.9 nM; Kd [2, 9]: 2.99 nM; Kd [3, 9]: 11.9 nM
SMYGKAFNHA	4.03 nM	6.58 nM	0.929 nM	–
FLNGSCGSV	–	–	–	Kd [1, 9]: 64.5 nM; Kd [2, 9]: 1.05 nM; Kd [3, 9]: 0.571 nM
GVMYAFTTPL	44.8 nM	34.2 nM	44.4 nM	–
LMAIDLGEL	–	–	–	Kd ([3]; source organism: Dengue virus 2 Jamaica/1409/1983): 15.3 nM
KIIAVFDSKL	59.4 nM	24.6 nM	56.8 nM	–
SLVKESMASL	1430 nM	994 nM	7.78 nM	–
ALYKGFQFI	–	–	–	Kd [1, 9]: 2.03 nM; Kd [2, 9]: 0.532 nM; Kd [3, 9]: 3.32 nM
NIGCAVNTPV	176 nM	126 nM	30.3 nM	–
FQESFYEDI	185 nM	2280 nM	4420 nM	–
YASLTTIGT	161 nM	409 nM	144 nM	–
IVCIVAAVII	3560 nM	1460 nM	1590 nM	–
PVVYHDDDNT	1350 nM	9140 nM	≥ 26800 nM	–
GLLDSIKMI	43.4 nM	80 nM	14.1 nM	–
ITLDILTEI	–	–	–	Kd [1, 12]: 8.88 nM
TLGVYDYLV	–	–	–	Kd [1, 9]: 74.8 nM; Kd [2, 9]: 0.245 nM; Kd [3, 9]: 936 nM
SCDDVVFGI	–	–	–	Kd [1, 10]: 14500 nM; Kd [2, 10]: 2150 nM; Kd [3, 10]: ≥ 50400 nM

Sequence	Kd [1, 11]	Kd [2, 11]	Kd [3, 11]	other results
NVISKIYTLI	196 nM	0.985 nM	32.7 nM	–
FLAHYIGTS	–	–	–	Kd ([3]; source organism: Dengue virus 3 Martinique/1243/1999): 10.7 nM
LLAMGCYSQV	–	–	–	Kd [3, 12]: 2.67 nM
VLAWLYAAV	–	–	–	Kd [1, 9]: 8.79 nM; Kd [2, 9]: 0.0967 nM; Kd [3, 9]: 0.311 nM
GIAIFNNRNL	4720 nM	5.12 nM	2040 nM	–
YTLIYRQLT	17600 nM	6410 nM	9420 nM	–
STFNMWREI	94.6 nM	5820 nM	713 nM	–
ITFLRPVLKA	18000 nM	3160 nM	718 nM	–
FLLPLTSLVI	2.5 nM	11.5 nM	5.07 nM	–
YVIRHVDGKI	522 nM	621 nM	114 nM	–
YLRGHTESI	90.9 nM	0.206 nM	0.176 nM	–
GIVAIDLDPV	–	–	–	Kd [1, 13]: 9.7 nM
TIFDIVSKCI	701 nM	198 nM	94.4 nM	–
WIKDIMTST	136 nM	193 nM	11.5 nM	–
IAMWLLLLSI	–	–	–	Kd [1, 9]: 498 nM; Kd [2, 9]: 85.8 nM; Kd [3, 9]: 1900 nM
EISSNDNAKI	162 nM	11200 nM	194 nM	–
VADLSARNKL	≥ 35800 nM	1170 nM	2160 nM	–
YVLFVKKML	2540 nM	≥ 31100 nM	12000 nM	–
VCFWSTLFY	–	–	–	Kd [4, 14]: 930 nM; Kd [5, 14]: ≥ 77700 nM; Kd [6, 14]: ≥ 39200 nM; Kd [7, 14]: ≥ 77900 nM; Kd [8, 14]: 138 nM
FTFGDTALYV	3.51 nM	24.3 nM	48.1 nM	–
GMYYPTNDI	1680 nM	53.1 nM	8.71 nM	–
KIVGLYGNGV	–	–	–	Kd [1, 13]: 14.7 nM
TVLPHLCLDY	–	–	–	Kd [4, 11]: 2.99 nM; Kd [5, 11]: 6050 nM; Kd [6, 11]: 701 nM; Kd [7, 11]: 598 nM; Kd [8, 11]: 4.08 nM
IIGPMFSGK	–	–	–	Kd [4, 11]: 1.79 nM; Kd [5, 11]: 7360 nM; Kd [6, 11]: 100 nM; Kd [7, 11]: 6320 nM; Kd [8, 11]: 0.73 nM
TLGNFSWFPH	–	–	–	Kd [4, 10]: 1380 nM; Kd [5, 10]: 12600 nM; Kd [6, 10]: 8980 nM; Kd [7, 10]: 570 nM; Kd [8, 10]: 2150 nM
EVGTNFGTI	19900 nM	5760 nM	1940 nM	–
